Reference: the supplement of paper PMC9876800

Test system: peptide library, one residue held at a place counted from the S/T acceptor
Experiment: relative phosphorylation of the sub-library (ratio to the mean residue at this position); higher = residue favoured
Outline: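 Purified recombinant kinases, either human or orthologue constructs, were incubated in 384-well plates with biotinylated degenerate peptide sub-libraries. Each sub-library fixed one residue at one position around a central Ser/Thr. Peptides at 50 μM and 50 μM ATP spiked with γ-32P-ATP were used for 90 min under kinase-specific conditions, and spots on streptavidin membranes were phosphorimaged and quantified by densitometry. Relative sub-library phosphorylation is expressed as a ratio to the mean residue at that position.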

PRKDC, construct: Full length, human, sequence (P78527 whole entry, looked up): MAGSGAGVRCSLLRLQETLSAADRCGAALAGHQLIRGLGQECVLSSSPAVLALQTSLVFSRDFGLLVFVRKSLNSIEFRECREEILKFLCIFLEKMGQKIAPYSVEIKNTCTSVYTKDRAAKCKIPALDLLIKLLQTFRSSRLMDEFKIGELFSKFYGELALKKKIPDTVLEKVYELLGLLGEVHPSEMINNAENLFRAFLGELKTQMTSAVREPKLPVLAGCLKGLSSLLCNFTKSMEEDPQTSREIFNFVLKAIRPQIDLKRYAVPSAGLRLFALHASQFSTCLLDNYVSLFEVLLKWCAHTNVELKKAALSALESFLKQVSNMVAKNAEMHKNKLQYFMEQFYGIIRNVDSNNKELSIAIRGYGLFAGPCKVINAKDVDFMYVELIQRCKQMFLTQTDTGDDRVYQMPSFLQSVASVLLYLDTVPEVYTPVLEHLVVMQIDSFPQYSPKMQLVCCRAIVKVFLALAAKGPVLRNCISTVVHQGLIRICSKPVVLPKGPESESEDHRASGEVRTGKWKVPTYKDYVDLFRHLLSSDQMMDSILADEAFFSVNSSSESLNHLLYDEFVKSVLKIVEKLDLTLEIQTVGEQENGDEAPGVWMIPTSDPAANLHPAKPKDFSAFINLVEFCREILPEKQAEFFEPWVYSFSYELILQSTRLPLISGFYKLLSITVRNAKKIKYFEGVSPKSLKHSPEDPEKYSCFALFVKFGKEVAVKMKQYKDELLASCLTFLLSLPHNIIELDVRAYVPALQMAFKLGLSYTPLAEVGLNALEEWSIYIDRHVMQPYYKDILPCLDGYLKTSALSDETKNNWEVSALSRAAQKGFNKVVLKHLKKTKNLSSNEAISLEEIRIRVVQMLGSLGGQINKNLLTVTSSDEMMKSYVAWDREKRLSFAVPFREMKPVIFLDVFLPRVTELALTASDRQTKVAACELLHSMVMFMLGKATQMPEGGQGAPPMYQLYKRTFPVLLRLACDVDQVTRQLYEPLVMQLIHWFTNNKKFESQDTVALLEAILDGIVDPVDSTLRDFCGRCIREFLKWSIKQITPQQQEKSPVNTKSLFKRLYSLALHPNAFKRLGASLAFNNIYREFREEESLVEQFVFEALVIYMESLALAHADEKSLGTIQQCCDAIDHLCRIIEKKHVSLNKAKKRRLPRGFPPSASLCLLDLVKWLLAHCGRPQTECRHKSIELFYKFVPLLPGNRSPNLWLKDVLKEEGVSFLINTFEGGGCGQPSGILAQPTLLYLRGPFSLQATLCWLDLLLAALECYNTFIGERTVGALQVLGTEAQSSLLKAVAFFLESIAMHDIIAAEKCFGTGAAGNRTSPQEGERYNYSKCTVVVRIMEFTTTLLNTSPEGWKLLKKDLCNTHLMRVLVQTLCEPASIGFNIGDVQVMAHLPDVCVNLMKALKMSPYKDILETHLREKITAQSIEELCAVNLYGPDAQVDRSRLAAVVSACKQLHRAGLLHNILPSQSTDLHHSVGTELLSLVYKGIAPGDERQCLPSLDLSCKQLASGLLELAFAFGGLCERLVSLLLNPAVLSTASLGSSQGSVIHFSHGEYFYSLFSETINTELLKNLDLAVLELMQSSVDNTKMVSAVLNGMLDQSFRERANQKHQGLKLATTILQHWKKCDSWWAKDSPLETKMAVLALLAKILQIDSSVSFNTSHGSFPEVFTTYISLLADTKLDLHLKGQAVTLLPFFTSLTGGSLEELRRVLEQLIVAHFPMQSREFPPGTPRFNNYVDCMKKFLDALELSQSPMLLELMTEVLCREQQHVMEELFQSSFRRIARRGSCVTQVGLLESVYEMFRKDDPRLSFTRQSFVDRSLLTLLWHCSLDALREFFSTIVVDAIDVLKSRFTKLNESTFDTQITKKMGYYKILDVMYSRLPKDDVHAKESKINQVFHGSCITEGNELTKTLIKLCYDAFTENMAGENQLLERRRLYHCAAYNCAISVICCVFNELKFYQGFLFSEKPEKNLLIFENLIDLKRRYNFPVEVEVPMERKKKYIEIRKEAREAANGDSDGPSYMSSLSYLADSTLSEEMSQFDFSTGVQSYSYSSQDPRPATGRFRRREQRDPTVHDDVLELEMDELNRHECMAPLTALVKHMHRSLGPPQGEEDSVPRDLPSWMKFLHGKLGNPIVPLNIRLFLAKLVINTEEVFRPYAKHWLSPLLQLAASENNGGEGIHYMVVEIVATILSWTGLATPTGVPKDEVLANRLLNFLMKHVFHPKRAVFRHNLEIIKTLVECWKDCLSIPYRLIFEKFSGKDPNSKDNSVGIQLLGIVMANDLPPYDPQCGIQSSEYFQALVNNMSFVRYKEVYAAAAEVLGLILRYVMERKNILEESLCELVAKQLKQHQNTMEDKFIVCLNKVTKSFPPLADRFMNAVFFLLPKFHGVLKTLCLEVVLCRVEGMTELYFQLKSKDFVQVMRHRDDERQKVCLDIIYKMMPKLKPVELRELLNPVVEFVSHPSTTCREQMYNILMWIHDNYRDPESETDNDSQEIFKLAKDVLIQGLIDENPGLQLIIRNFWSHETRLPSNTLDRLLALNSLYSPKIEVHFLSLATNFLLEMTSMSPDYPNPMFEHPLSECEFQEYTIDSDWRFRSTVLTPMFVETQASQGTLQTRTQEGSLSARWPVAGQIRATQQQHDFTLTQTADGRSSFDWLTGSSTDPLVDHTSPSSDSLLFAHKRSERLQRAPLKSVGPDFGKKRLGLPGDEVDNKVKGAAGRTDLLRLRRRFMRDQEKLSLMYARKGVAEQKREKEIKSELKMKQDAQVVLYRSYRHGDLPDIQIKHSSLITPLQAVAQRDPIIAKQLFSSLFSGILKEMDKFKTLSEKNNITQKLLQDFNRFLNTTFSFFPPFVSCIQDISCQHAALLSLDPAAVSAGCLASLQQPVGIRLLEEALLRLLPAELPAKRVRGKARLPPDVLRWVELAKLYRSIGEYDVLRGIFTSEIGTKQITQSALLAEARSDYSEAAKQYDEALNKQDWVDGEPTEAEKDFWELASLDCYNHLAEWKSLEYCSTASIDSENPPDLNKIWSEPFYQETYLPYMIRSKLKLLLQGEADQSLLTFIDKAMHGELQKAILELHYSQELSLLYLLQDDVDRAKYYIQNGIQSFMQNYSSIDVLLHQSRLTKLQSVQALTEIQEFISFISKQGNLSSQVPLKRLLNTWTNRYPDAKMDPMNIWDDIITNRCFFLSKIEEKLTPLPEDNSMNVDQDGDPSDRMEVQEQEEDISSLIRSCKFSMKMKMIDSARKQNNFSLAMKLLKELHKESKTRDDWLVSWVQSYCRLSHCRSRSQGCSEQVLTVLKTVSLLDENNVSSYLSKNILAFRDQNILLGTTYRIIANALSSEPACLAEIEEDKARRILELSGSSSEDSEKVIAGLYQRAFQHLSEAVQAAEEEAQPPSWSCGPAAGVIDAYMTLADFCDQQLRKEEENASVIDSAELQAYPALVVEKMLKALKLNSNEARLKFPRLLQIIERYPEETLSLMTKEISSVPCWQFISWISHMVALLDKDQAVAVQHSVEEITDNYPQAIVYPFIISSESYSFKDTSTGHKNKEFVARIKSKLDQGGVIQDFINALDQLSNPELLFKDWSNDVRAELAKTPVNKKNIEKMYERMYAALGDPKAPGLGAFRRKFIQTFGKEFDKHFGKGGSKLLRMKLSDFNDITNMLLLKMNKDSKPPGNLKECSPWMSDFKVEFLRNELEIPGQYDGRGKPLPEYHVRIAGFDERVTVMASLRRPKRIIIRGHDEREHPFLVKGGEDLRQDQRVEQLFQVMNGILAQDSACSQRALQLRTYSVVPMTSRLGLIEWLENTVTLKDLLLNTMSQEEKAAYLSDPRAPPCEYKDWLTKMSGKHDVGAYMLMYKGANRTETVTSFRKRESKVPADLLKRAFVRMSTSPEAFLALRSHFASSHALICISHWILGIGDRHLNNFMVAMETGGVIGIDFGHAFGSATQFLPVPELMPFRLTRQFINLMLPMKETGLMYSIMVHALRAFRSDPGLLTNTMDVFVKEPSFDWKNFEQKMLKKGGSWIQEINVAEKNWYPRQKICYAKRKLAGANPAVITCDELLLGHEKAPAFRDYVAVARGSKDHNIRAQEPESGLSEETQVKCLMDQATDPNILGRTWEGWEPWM
PDK1, construct: Full length, human, sequence (Q15118 whole entry, looked up): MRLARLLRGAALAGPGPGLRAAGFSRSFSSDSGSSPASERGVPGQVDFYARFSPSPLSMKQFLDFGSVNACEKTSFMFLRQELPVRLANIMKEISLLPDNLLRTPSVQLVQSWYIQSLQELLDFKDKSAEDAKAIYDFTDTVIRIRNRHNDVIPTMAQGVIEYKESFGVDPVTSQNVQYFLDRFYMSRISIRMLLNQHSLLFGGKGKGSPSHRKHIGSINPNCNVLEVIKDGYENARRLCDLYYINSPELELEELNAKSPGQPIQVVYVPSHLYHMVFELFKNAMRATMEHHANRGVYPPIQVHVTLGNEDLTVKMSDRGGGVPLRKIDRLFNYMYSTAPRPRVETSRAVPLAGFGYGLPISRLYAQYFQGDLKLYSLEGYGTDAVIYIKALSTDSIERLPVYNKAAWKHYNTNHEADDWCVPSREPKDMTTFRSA

PDK1, construct: Full length, human (from UniProt Q15118)
relative phosphorylation
Details | at +1 | at +2 | at +3 | at +4 | at -1 | at -2 | at -3 | at -4 | at -5
A fixed | 0.64 | 0.794 | 0.777 | 0.904 | 1.25 | 0.94 | 0.972 | 0.989 | 0.951
D fixed | 0.63 | 1.03 | 1.5 | 1.01 | 1.58 | 0.752 | 0.799 | 0.88 | 0.943
E fixed | 0.568 | 0.888 | 1.1 | 0.856 | 0.681 | 0.7 | 0.677 | 0.818 | 0.881
F fixed | 1.18 | 1.15 | 1.64 | 1.17 | 1.04 | 1.26 | 1.28 | 1.18 | 1.24
G fixed | 0.641 | 1.71 | 1.08 | 1.05 | 1.11 | 1.42 | 0.928 | 1.14 | 1.12
H fixed | 0.804 | 1.09 | 0.87 | 1.06 | 1.25 | 1.26 | 1.08 | 0.957 | 1.1
I fixed | 2.06 | 0.767 | 0.932 | 1 | 0.793 | 0.852 | 1.1 | 0.962 | 0.945
K fixed | 0.624 | 0.808 | 0.622 | 0.794 | 0.655 | 0.704 | 0.77 | 0.832 | 0.824
L fixed | 2.3 | 0.889 | 0.883 | 0.884 | 0.924 | 1.02 | 1.07 | 0.982 | 1.05
M fixed | 1.34 | 0.989 | 1.02 | 1 | 0.976 | 1.08 | 1.12 | 1.19 | 1.1
N fixed | 0.625 | 0.935 | 0.809 | 1.02 | 1.29 | 0.787 | 0.867 | 0.878 | 0.981
P fixed | 0.607 | 0.902 | 1.1 | 1.08 | 0.864 | 0.799 | 0.912 | 1.02 | 0.722
Q fixed | 0.727 | 1.04 | 0.803 | 0.884 | 0.801 | 0.869 | 0.852 | 0.883 | 0.679
R fixed | 0.728 | 1.11 | 0.897 | 0.967 | 0.751 | 0.986 | 0.851 | 0.988 | 0.95
V fixed | 1.28 | 0.813 | 0.948 | 0.926 | 0.823 | 0.83 | 0.94 | 0.831 | 0.917
W fixed | 1.25 | 1.08 | 1.03 | 1.38 | 1.21 | 1.73 | 1.78 | 1.47 | 1.6
Y fixed | 1.18 | 1.15 | 1.64 | 1.17 | 1.04 | 1.26 | 1.28 | 1.18 | 1.24
pThr fixed | 0.538 | 0.662 | 0.863 | 0.876 | 0.572 | 0.524 | 0.666 | 0.846 | 0.933
pTyr fixed | 0.723 | 0.951 | 0.689 | 0.919 | 0.694 | 0.892 | 0.885 | 1.2 | 1.05

PRKCE, construct: Full length, human (from UniProt Q02156)
relative phosphorylation
Details | at +1 | at +2 | at +3 | at +4 | at -1 | at -2 | at -3 | at -4 | at -5
A fixed | 0.507 | 0.48 | 0.795 | 0.905 | 1.06 | 0.774 | 0.669 | 1.12 | 1.16
D fixed | 0.169 | 0.162 | 0.342 | 0.375 | 0.373 | 0.296 | 0.223 | 0.455 | 0.383
E fixed | 0.165 | 0.138 | 0.347 | 0.334 | 0.312 | 0.308 | 0.235 | 0.558 | 0.35
F fixed | 1.7 | 0.528 | 0.831 | 0.561 | 0.588 | 0.69 | 0.691 | 0.783 | 1.28
G fixed | 0.525 | 0.366 | 1.01 | 0.967 | 1.59 | 0.908 | 0.731 | 1.08 | 1.05
H fixed | 0.66 | 1.02 | 1.25 | 1.16 | 0.936 | 1.1 | 1.09 | 1.16 | 1.12
I fixed | 1.43 | 0.515 | 0.619 | 0.6 | 0.44 | 0.393 | 0.435 | 0.689 | 0.935
K fixed | 2.1 | 4.18 | 2.99 | 3.19 | 2.52 | 2.35 | 2.17 | 2.11 | 1.67
L fixed | 1.15 | 0.441 | 0.746 | 0.567 | 0.679 | 0.425 | 0.466 | 0.639 | 0.934
M fixed | 1.18 | 0.566 | 0.581 | 0.62 | 0.813 | 0.528 | 0.545 | 0.833 | 0.744
N fixed | 0.577 | 0.501 | 0.661 | 0.921 | 0.997 | 0.834 | 0.552 | 0.822 | 0.665
P fixed | 0.473 | 0.357 | 0.604 | 1.07 | 1.21 | 0.623 | 0.708 | 0.919 | 0.921
Q fixed | 1.01 | 0.543 | 0.7 | 0.931 | 0.949 | 0.957 | 0.64 | 0.894 | 0.753
R fixed | 2.4 | 4.74 | 3.01 | 2.59 | 2.49 | 4.46 | 5.89 | 2.3 | 1.93
V fixed | 1.32 | 0.537 | 0.67 | 0.634 | 0.611 | 0.529 | 0.413 | 0.808 | 0.757
W fixed | 0.717 | 0.516 | 0.891 | 0.961 | 0.471 | 1.12 | 0.613 | 1.02 | 1.39
Y fixed | 0.928 | 1.4 | 0.95 | 0.607 | 0.968 | 0.701 | 0.934 | 0.82 | 0.956
pThr fixed | 0.851 | 0.471 | 0.573 | 0.688 | 0.378 | 0.561 | 0.657 | 0.799 | 0.932
pTyr fixed | 0.505 | 0.525 | 0.731 | 0.569 | 0.528 | 0.535 | 0.678 | 0.625 | 0.989

PRKCI, construct: Full length, human (from UniProt P41743)
relative phosphorylation
Details | at +1 | at +2 | at +3 | at +4 | at -1 | at -2 | at -3 | at -4 | at -5
A fixed | 0.617 | 0.488 | 0.873 | 0.871 | 1.13 | 0.692 | 0.835 | 1.12 | 1
D fixed | 0.136 | 0.156 | 0.275 | 0.43 | 0.343 | 0.184 | 0.208 | 0.464 | 0.499
E fixed | 0.134 | 0.152 | 0.277 | 0.378 | 0.317 | 0.197 | 0.23 | 0.464 | 0.425
F fixed | 1.85 | 0.543 | 0.961 | 0.688 | 0.607 | 0.995 | 1.06 | 0.998 | 1.39
G fixed | 0.617 | 0.557 | 0.946 | 1.07 | 1.4 | 0.883 | 0.846 | 1.04 | 1.02
H fixed | 0.755 | 1.42 | 1.24 | 1.2 | 0.896 | 1.17 | 1.01 | 1.1 | 1.05
I fixed | 1.34 | 0.654 | 0.855 | 0.926 | 0.35 | 0.447 | 0.543 | 0.782 | 0.792
K fixed | 1.93 | 2.63 | 2.28 | 2.33 | 2.57 | 1.52 | 1.86 | 1.71 | 1.71
L fixed | 1.18 | 0.538 | 0.882 | 0.716 | 0.617 | 0.601 | 0.745 | 0.761 | 1.13
M fixed | 1.74 | 0.873 | 0.722 | 0.745 | 1.02 | 0.878 | 0.915 | 0.883 | 0.814
N fixed | 0.58 | 0.59 | 0.598 | 0.765 | 0.921 | 0.768 | 0.579 | 0.899 | 0.771
P fixed | 0.445 | 0.401 | 0.699 | 1.11 | 0.731 | 0.423 | 0.603 | 0.75 | 0.79
Q fixed | 0.79 | 0.655 | 0.659 | 0.863 | 1.12 | 0.813 | 0.698 | 0.859 | 0.788
R fixed | 2.23 | 5.01 | 2.67 | 2.07 | 2.73 | 4.2 | 4.14 | 1.78 | 1.76
V fixed | 1.04 | 0.643 | 0.792 | 0.774 | 0.607 | 0.478 | 0.655 | 0.935 | 0.89
W fixed | 0.696 | 0.658 | 1.14 | 1.14 | 0.637 | 1.02 | 1.01 | 1.53 | 1.22
Y fixed | 0.92 | 1.04 | 1.15 | 0.923 | 0.993 | 1.73 | 1.06 | 0.926 | 0.948
pThr fixed | 0.598 | 0.355 | 0.444 | 0.621 | 0.312 | 0.388 | 0.638 | 0.775 | 0.716
pTyr fixed | 0.324 | 0.334 | 0.539 | 0.442 | 0.309 | 0.349 | 0.391 | 0.388 | 0.599

PRKDC, construct: Full length, human (from UniProt P78527)
relative phosphorylation
Details | at +1 | at +2 | at +3 | at +4 | at -1 | at -2 | at -3 | at -4 | at -5
A fixed | 0.244 | 1.11 | 0.987 | 0.798 | 1.14 | 1.28 | 1.11 | 0.908 | 1.01
D fixed | 0.156 | 3.46 | 1.28 | 1.49 | 0.887 | 0.607 | 0.595 | 0.795 | 0.728
E fixed | 0.145 | 2.46 | 1.6 | 1.57 | 1.08 | 0.733 | 0.681 | 0.895 | 0.773
F fixed | 1.31 | 0.561 | 1.15 | 1.13 | 1.22 | 1.25 | 1.13 | 1.02 | 1.15
G fixed | 0.222 | 0.753 | 0.712 | 0.971 | 2.01 | 1.28 | 1.11 | 1.35 | 1.13
H fixed | 0.179 | 0.678 | 0.721 | 0.931 | 0.977 | 1.08 | 1.05 | 1.06 | 1.07
I fixed | 0.705 | 0.41 | 0.935 | 0.728 | 0.352 | 0.969 | 1.08 | 1.07 | 1.03
K fixed | 0.166 | 0.556 | 0.627 | 0.625 | 0.345 | 0.776 | 0.796 | 0.961 | 1.2
L fixed | 2.21 | 0.558 | 0.943 | 0.715 | 0.87 | 0.831 | 1 | 0.953 | 0.957
M fixed | 1.25 | 0.688 | 1.27 | 1.09 | 1.07 | 1.06 | 1.16 | 1.02 | 1.06
N fixed | 0.407 | 0.879 | 0.7 | 0.902 | 1.25 | 1.25 | 0.829 | 0.829 | 0.879
P fixed | 0.638 | 1.2 | 0.943 | 0.825 | 0.725 | 0.937 | 1.02 | 0.907 | 0.944
Q fixed | 7.43 | 1 | 0.818 | 0.869 | 1.2 | 0.99 | 0.891 | 0.85 | 0.656
R fixed | 0.362 | 0.725 | 0.623 | 0.88 | 0.686 | 1.13 | 1.12 | 1.17 | 1.21
V fixed | 0.371 | 0.609 | 1.02 | 0.653 | 0.317 | 0.852 | 0.967 | 0.812 | 0.979
W fixed | 0.309 | 0.656 | 1.36 | 1.6 | 0.835 | 0.916 | 1.16 | 1.18 | 1.11
Y fixed | 0.892 | 0.702 | 1.31 | 1.22 | 2.04 | 1.06 | 1.3 | 1.22 | 1.11
pThr fixed | 0.228 | 1.74 | 1.81 | 1.94 | 0.33 | 0.77 | 0.764 | 0.76 | 0.72
pTyr fixed | 0.194 | 0.795 | 1.87 | 1.87 | 0.926 | 0.966 | 0.829 | 0.692 | 0.654
